Results as given in the DeepSol protein solubility set.

Test: soluble on expression in E. coli; label from the status in PepcDB or PDB records

Row | Sequence | soluble on expression in E. coli
1 | MDCHKLRRLLKKEEGPKLDFKAEYDLSTESGKKELTKDVIAIANSRGGRGYIILGIEDKTKRVLGIEPKRYTEEQIQQIIYNRCDPPVPISVDFVGLDGKTVGVITVYRSSHKPHQMIQNGAFYIRRGSTTDIARRSEIANLFQENGLMTYETVILKNVGMEELDFGLIKDYFKTLNVFSDNPSELILEALGIIGQKSDTEEYHPTIGGLLLFGKNPSLYLPHVYVKVVYNGEARLFFGNILKMLDDVSDYMRSIIKVEGYPFNALEEVIANALVHRDYLDVSKGIVITVTDKNIEISNPGALIAGNSVYSFSREINPDRRNPWLYQRLLTLDPKKRFMKSGVGLKRVKKSFTGIGPVKFINIGSQNLFKVLLPIGKKQESTSDTSGLF | soluble
2 | MAGEEINEDYPVEIHEYLSAFENSIGAVDEMLKTMMSVSRNELLQKLDPLEQAKVDLVSAYTLNSMFWVYLATQGVNPKEHPVKQELERIRVYMNRVKEITDKKKAGKLDRGAASRFVKNALWEPKSKNASKVANKGKSKS | not soluble
3 | SEVERKIVSLEALYIVYDADGTVAGELLYLLRKWLGKGHCAACDITHGPRKVKPEWTILQKTGWLGVPLFNIHRDEMEPKLRSAVSCALPCVAALVDNGDYVLLLQPEDLESCKGQVSKLQEKIVEALKDFGFQVNESFTSVVTSDLSDTCPSTLDREKEEDDAVVPF | soluble
4 | GMNTLLKQLKPYPFARLHEAMQGISAPEGMEAVPLHIGEPKHPTPKVITDALTASLHELEKYPLTAGLPELRQACANWLKRRYDGLTVDADNEILPVLGSREALFSFVQTVLNPVSDGIKPAIVSPNPFYQIYEGATLLGGGEIHFANCPAPSFNPDWRSISEEVWKRTKLVFVCSPNNPSGSVLDLDGWKEVFDLQDKYGFIIASDECYSEIYFDGNKPLGCLQAAAQLGRSRQKLLMFTSLSKRSNVPGLRSGFVAGDAELLKNFLLYRTYHGSAMSIPVQRASIAAWDDEQHVIDNRRLYQEKFERVIPILQQVFDVKLPDASFYIWLKVPDGDDLAFARNLWQKAAIQVLPGRFLARDTEQGNPGEGYVRIALVADVATCVKAAEDIVSLYR | soluble
5 | MRLLPVTLLLGAVIFVSTKSTCRTRTKPPSTVPMNEVTEAVTTKKASNVTVKPTTCEASWTRVERSIGGWCLKVYNGFVHQDQASQACIRIGAELSGSESSAERAVIARLGKERMLAASDYKFGTIRVGIARPTTTRAWALTDGNNDGGQQGIQWSKGEPQLGPTSGYSHNCALMWIWASTGTSPYEHGKYFHKFVHLLGRTCTEDLFVESVLLDF | not soluble
6 | MGAKDKATGKSWSDVQQRLQQFHSQEFLNSLRGTTQFAGTDYRSKDLTPKKSRLLADTISAVYLDGYES | not soluble
7 | GTDGTKPECTLCGVKYSARLSIRDHIFSKQHISKVRETVGSQLDREKD | soluble
8 | MGSDKIHHHHHHMESLKKCFDLQGKEIVSIVGSGGKTSLMWALAKTYRKEAVLVSTTTKIGFPQRQLYDYFYTNHFEKITPNICGITLAGTAINNQTKLTMPAMTSFQTLFQHFTKVFLEADGSKQRPLKGWSSYEPVILKETTTTIGVLPISVIGQKIDETTIHRLPLFLELTDAQLQEPITETLLAQLIDHPKGLFKESQGQRILCLNQTHTRREFVQAMNVCLQLPKSCFEKLDKIIACNMELEKGLILWEKSVKTSKKN | not soluble
9 | MSLADWQNLDPEAAREAEKYENPIPSRELILAHLSERGAPATRSQLLDEFGLAGEEPEEALRRRLRAMERDGQLIYTRRGAYAPVDKLDLIRGRISGHRDGFGFLIPDDGSDDLFLSPTQMRLVFDGDRALARVSGHDRRGRREGQLVEVIERAHEIVVGRYFEESGIGVVVADNPKIQQEVLIPPGKAGKARHNQFVQVRIEQWPSIHRQAQGEIVEVLGDYMAPGMEIEVALRSYDIPHVWPAAVEKEAAKLKPEVAEKDKEKRVDLRQVPFVTIDGEDARDFDDAVYAEAKRGGGWRLFVAIADVSHYVKVGSALDEEAARRGNSVYFPERVIPMLPEVLSNGLCSLNPLVDRLAMVCEMTLSKAGKLTGYQFYEAVIHSHARLTYTKVSQLLEHPDSVEAENLRQQLPGVVPHLQQLYALYKALLAGRHVRGAIDFETQETRIVFGADRKISEIRPTQRNDAHRLIEECMLCANVATARFLQKHAIPALYRVHDGPPQEKLNNLRQFLGELGLSLGRGKAAPTPGDYQELLEKIHDRADFRLIQTVMLRSLSQAVYSPDNNGHFGLNYDAYTHFTSPIRRYPDLLVHRAIRSVIRSKAETPHVQRAGAASMPKARIYPYDELRLDQLGEQCSMTERRADEATRDVTNWLKCEYMRERVGETFPGVITAVTGFGLFVELTDIFVEGLVHVTALPGDYYHFDAVHHRLSGERTGRSFRLGDTTEVVVARVDLDERKIDFELAGNVLSAPIGRKKRNGDKSANAGKAPKGRKGASVPEVDLEPALASPDAAVVPRRKAGKVQALPPVAPELLAQAAEMLGNTDVRKSREVKQALLAEARVGGKDKGGKKGKVVPAGKSAKGKAKDGKPAAAAKPGKPTKHRKGPSKPKADNAPAATGARKRKAKSEGHHHHHH | not soluble
10 | MEFTDIAMELSKKAWQASFHHPFILQLQEGNLEPAIFRYYLIQDAYYLKAFSEIYHLLADKTSNQEMKRLLKQNAQGLVEGELFIRQQFFKELEISDQEMEQHPIAPTCYHYISHIYRQFAEPNLAIAFASLLPCPWLYHDIGKSLNLKPSPNPLYQQWIETYITDELEQQIREEGALVNQLYRESDETDKQKMLDAFHISVHMEAKFWEMAYQHQTWKSDLQSLEKGEEMAGDPLEHHHHHH | soluble
11 | MGSDKIHHHHHHMSDNLPKKQPRTAPPEARREQLIDATITAISTYGLSGTTLAKVTAEAGLSLGLVNFHFKSKEALLTATLTHLADEHRALWFTRSSQPDVSAADKLKLIVDAQFHAKICNRRKLSVWFAFFGESRPRKAYRELTGPLDEERQIATSRLCADIIAEGGYSGIDSDTVSAMLESLFDGFWLNILMYPDRFTRQSAKAQVLSYLRLCFPQHFTCLDAETFA | not soluble
12 | MLIREIEKKDNEQVETLIRTCLIEFGADKPGCAWTDPDLGRFYEIYQDKKSKYWVVEEEGKIIAGCGIGPLNGAENVCELQKMYSYKEARGTGIAKDLLGLALDFAKKYYDKCYLETFSNMTAANKFYVKNGFKKLEKPLIETDHYACDVWYIKEL | not soluble
13 | MLTSFGKTLRKLRIDHSERLLDMADKPGVSVAFLSSVEIGKKSVPVGMEEKIIEFYSLDKAMASLLKKEADACVERTSQSNLLIHLVVKLLACFLEI | not soluble
14 | MLKSVLGKFSVGDKMIEVTFLGAGGGRFVTITQVRSTGGFFIKASKNIFVDPGPGALIRMIRYKLDPRKIDVLFISHRHTDHCNDAEVIVEGMTYGVTKRRGILIGSRSVVHGDDAHTPALSKYHLEALEEVHAPNPGDRFKLGNEDMVITPSVHSDPTTIGFRLKTNFGDISYIADTEYFEGLEEWHDGTRVLIASVTRPRDMKIPYHLSTDDVVYMLKKMKEKPEVLIMTHLGMKMHFAGPYKEAEYIQNVTGVKTYVAKEGFRITIGKEIHVKTLRPVRFVLEHHHHHH | soluble
15 | MICFRTAFILILGVVIGTTAKRHNVRRHVNGKWTDKHCEEPPSLKEDLATWMQISMSGQFDDTALEEWSTNGKEPEICEKSPKADGVTTIMERALCPWDSRVNYQESREPKLIAESVCLCRKSRGSTGAFCMPIVRKVPILRRVSCDRSTGLWNYVRSTELITVGCHSVLPRTQRAARLAHLSSSRIIV | not soluble
16 | SLNAFDELVFAPMYVTSVDGRQAGVFHAHKGRRLIAAHRKAGTTPFVGASRVNNSITGFADTPALFPGGWITLIYNGDGGTGHAKYQPAPFNASDDVIALEPISKQATEPALLLIASMLTLQCVPKFGFGYKLTLHRLDRQKIMIPVLTNADGEQVVNWSGLTRHGKRLLNEAKTRARAVRELTSTAKPKLPELNYMPMFITDVFESMNAAGKWFDFAKACLSGKPFAPYIARSGGGNGVGSFVPHQGFAPPNAGNAITIGVSTSTVFYQPVPFYTSKEIQVLRHHKLTADSGLILVALLREQMGKFQWGNGASLERLKATRIMVPAMVGADGEDVVDWDGLSRYGRALRARVELAINAVL | not soluble
17 | MGSDKIHHHHHHMIGEKIISFESIDSTNRFLKENYRFYPDGTVVVALEQTSGYGRSGRHWHSPKGGLWFSVLFKPRKPLELSFYTRVFSVAVVKTLENMKIHANIKWPNDVYINGRKLAGVLSEGIFEGAKPLAVVVGVGMNVNNEIPAELKTRAISLKEIMGKEISIVKLMESMLKNARVIFRKYSRKKEALTRIWKRYLLQKEGDLISLEGKKGKIVKINPDSLLIDFDGEIKKVYSLSPH | not soluble
18 | SKFDKLNKAYEQIKSDYYQKTDDDKLVDGAIKGMIQSLDDPYSTYMDQEQAKSFDETISASFEGIGAQVEEKDGEILIVSPIKGSPAEKAGIKPRDQIIKVNGKSVKGMNVNEAVALIRGKKGTKVKLELNRAGVGNIDLSIKRDTIPVETVYSEMKDNNIGEIQITSFSETTAKELTDAIDSLEKKGAKGYILDLRGNPGGLMEQAITMSNLFIDKGKNIMQVEYKNGSKEVMKAEKERKVTKPTVVLVNDGTASAAEIMAAALHESSNVPLIGETTFGKGTVQTAKEYDDGSTVKLTVAKWLTADGEWIHKKGIKPQVKAELPDYAKLPYLDADKTYKSGDTGTNVKVAQKMLKALGYKVKVNSMYDQDFVSVVKQFQKKEKLNETGILTGDTTTKLMIELQKKLSDNDTQMEKAIETLKK | not soluble
19 | MGSMDQSIAVKSPLTYAEALANTIMNTYTVEELPPANRWHYHQGVFLCGVLRLWEATGEKRYFEYAKAYADLLIDDNGNLLFRRDELDAIQAGLILFPLYEQTKDERYVKAAKRLRSLYGTLNRTSEGGFWHKDGYPYQMWLDGLYMGGPFALKYANLKQETELFDQVVLQESLMRKHTKDAKTGLFYHAWDEAKKMPWANEETGCSPEFWARSIGWYVMSLADMIEELPKKHPNRHVWKNTLQDMIKSICRYQDKETGLWYQIVDKGDRSDNWLESSGSCLYMYAIAKGINKGYLDRAYETTLLKAYQGLIQHKTETSEDGAFLVKDICVGTSAGFYDYYVSRERSTNDLHGAGAFILAMTELEPLFRSAGK | soluble
20 | AIAPLGEEKNGKCDGSIYVNNPHLDSMTDDILYHFNLGTSTHDLPKMFGDVKFVCVGGSPWRMKSFTEYIAKELGLVDPNAEYPNICAGTDRYAMYKVGPVLSVSHGMGIPSISIMLHELIKLLYHARCTDVTVVRIGTSGGIGLKPGTVVVTKQSVDSLFQPHLEQTILGKPVVRSTELDKELAEELLQCGKELGEFEIIIGNTMCTLDFYEGSNVFEDKCTRIAAYSFKIHVL | soluble
21 | MRDRTCVVPGCGATRGLHAHHIRHWQDGGATELANLVLVCPYHHRAHHRGLITITLEHHHHHH | not soluble
22 | DLTGKSIVGYRISGGLDIPIGYGLYVNPSLAFHSKGMKTNLEGVALGALGLNSSLKVKTHYIEIPVHLGYRLSLLNLVSVAVQAGPYFSYAIKGDGTVVRKDGQETTFDIYKDGLKEMINAKRFDVGLGAAAMVGYSNFYLLIGADFGLINTVKDIKPETKNLEATLKNTSFHVGLGIRL | not soluble
23 | MAENAAPGLISELKLAVPWGHIAAKAWGSLQGPPVLCLHGWLDNASSFDRLIPLLPQDFYYVAMDFGGHGLSSHYSPGVPYYLQTFVSEIRRVVAALKWNRFSILGHSFGGVVGGMFFCTFPEMVDKLILLDTPLFLLESDEMENLLTYKRRAIEHVLQVEASQEPSHVFSLKQLLQRQRTALTSSAGSCVRIPSGSCRPMSC | soluble
24 | MMRGGMGNMQKMLKQMQKMQKEMQKAQEELAEKTVEGTAGGGMVTVVANGHKQILEVKIKEEVVDPDDIEMLQDLILAATNDALKKADELANEMMGQFTKGLNIPGLF | not soluble
